In one experiment the test system is pro-ICA512. As to conditions: cells stimulated for 2 hours; reference 8; cited from earlier work.
For the next experiment, the system named is INS-1 cells. Put plainly: Uridine incorporation in INS-1 cells. It counts as cell-based, rat. As to conditions: 5 μg/ml actinomycin D; ICA512-CCF-GFP-transfected INS-1 cells.
Experiment [1] has as its target T1, STAT5b (rat, UniProt P52632 1-786).
T1 sequence (looked up): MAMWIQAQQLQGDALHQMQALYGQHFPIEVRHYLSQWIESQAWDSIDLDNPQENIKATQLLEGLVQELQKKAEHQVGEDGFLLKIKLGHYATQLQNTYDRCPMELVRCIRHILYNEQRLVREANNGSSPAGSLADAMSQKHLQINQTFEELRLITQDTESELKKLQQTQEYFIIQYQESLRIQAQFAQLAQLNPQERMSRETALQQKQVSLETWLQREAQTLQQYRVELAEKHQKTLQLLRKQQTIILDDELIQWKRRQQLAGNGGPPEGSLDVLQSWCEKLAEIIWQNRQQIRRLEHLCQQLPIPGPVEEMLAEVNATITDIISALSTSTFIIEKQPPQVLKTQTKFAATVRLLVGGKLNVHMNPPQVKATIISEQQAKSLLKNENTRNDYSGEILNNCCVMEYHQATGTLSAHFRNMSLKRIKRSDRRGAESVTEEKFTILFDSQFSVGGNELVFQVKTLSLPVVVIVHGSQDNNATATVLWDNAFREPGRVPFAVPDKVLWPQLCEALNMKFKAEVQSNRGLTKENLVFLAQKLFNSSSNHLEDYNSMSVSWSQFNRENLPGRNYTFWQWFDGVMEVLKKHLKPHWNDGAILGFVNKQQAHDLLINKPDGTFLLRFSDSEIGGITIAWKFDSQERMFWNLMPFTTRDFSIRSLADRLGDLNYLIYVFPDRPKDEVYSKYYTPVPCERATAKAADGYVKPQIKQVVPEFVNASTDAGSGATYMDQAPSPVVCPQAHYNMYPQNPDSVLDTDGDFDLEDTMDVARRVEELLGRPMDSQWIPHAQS
Put plainly: cell-based or functional assay.

The next experiment has as its target T2, PIASy-YFP (mouse, UniProt Q9JM05 2-507).
T2 construct: whole, on cells; Transiently expressed in INS-1 cells; nuclear; not shown: YFP encoded by pEYFP-N2 (Clontech), fused at the C-terminus
T2 sequence (looked up): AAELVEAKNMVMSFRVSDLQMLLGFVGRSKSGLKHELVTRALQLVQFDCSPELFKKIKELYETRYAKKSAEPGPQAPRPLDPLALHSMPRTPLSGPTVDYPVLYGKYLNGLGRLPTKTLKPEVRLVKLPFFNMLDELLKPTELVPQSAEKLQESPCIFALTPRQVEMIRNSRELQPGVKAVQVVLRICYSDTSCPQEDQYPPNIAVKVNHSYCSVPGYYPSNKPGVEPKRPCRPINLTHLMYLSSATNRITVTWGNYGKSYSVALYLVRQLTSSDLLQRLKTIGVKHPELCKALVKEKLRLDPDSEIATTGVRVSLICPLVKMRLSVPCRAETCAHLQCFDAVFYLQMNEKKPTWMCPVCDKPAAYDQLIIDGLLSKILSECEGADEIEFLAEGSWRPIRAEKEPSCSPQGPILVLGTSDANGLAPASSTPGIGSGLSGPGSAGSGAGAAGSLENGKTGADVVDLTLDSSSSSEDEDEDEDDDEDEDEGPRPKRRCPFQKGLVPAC
Put plainly: FRET by acceptor photobleaching in nuclei of co-transfected INS-1 cells. The procedure: FRET analysis. INS-1 cells transiently co-transfected with ICA512-CFP, PIASy-YFP, Ism4-YFP and Ism4-CFP were incubated either in resting or stimulating buffer for 90 minutes. Following fixation in 2% paraformahaldehyde, cells were imaged with an inverted […] confocal microscope (Zeiss) using a Plan-Apochromat 100× 1.4 oil DIC objective, The pinhole diameter was set between 1.0 and 1.25 Airy-Unit. […] 458 nm and 514 nm laser lines were used to excite CFP and YFP, respectively. CFP images were acquired with a 458 nm dichroic mirror and a bandpass filter of 475-495, while YFP fluorescence was collected with a 514 nm dichroic mirror and a bandpass filter of 530-600 nm. FRET was assessed by measuring the dequenching of CFP during the photobleaching of YFP performed with the 514 nm laser line at 70% power and for six cycles of 30 sec. each. Mean fluorescence of CFP and YFP were determined by tracing the nuclear perimeter of the cell using the “region of interest” software function. Fluorescence intensity of CFP after photobleaching was normalized to 100% at time 0. In each experiment, 6-9 fields for each slide were photobleached and recorded. Each experiment was independently performed two times.

The target of experiment [2] is T1, STAT5b. Nature of the experiment: anti-GFP immunoprecipitation from total INS-1 extracts, immunoblot for STAT5b. The procedure: Immunoprecipitation. INS-1 cells were transiently transfected With one or more of the following constructs: GFP, ICA512-CCF-GFP, ICA512-CCF(K/A⁷⁵⁴)-GFP, SUMO-1 and HA-SUMO-1. Anti-GFP IgGs were used for immunoprecipitations from total or cytosolic extracts. Immunoprecipitates were immunoblotted with anti-STAT5b, anti-PY-STAT5, anti-GFP or anti-HA antibodies. 600 μg and 200 μg protein were used as starting material for immunopreciptation of sumoylated ICA512 and STAT5, respectively.
On the technique in general: In western blotting, separated proteins are transferred to a membrane and probed.

The target in experiment [3] is T3, in-vitro transcribed and translated [^35S]-labeled PIASy (mouse, UniProt Q9JM05 1-507, [35S]-methionine label).
T3 construct: The mouse PIASy cDNA in pcDNA3.1 is the only untagged PIASy construct described; also called [^35S]-PIASy; [^35S]-methionine-PIASy
T3 sequence (looked up): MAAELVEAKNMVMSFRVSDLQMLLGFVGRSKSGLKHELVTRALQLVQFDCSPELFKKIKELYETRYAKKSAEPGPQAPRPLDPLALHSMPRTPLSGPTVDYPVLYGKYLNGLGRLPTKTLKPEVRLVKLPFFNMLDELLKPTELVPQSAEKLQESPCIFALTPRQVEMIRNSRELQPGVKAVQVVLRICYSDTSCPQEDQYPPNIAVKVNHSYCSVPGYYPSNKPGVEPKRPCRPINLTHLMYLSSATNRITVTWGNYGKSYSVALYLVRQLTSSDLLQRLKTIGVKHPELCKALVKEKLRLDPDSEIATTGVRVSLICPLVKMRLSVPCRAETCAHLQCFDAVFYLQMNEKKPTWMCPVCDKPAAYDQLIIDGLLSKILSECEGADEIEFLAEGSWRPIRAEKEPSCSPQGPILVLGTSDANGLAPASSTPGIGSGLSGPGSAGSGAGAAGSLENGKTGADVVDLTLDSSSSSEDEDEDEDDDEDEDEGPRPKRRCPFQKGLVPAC
Nature of the experiment: GST pull-down, SDS-PAGE and autoradiography.

Starred links: 1 amine or outer side, 2 acyl side, 3 side chain; linkers in the order of their positions; H or OH if unused. Positions of bridges follow the written chain, without caps; N, C: chain ends. Non-standard residues stand in square brackets, D forms with d. Residues, ends and D or L forms follow the SMILES beside them. Chains are numbered I, II in the order given. Actinocin(9to1) = Cc1c2oc3c(C)ccc(C(=O)[*:1])c3nc-2c(C(=O)[*:2])c(N)c1=O; NMeV = CN[C@H](C(=O)O)C(C)C; Sar = CNCC(=O)O

The source of these data is patent publication US20090131309A1, “ICA512 COUPLES INSULIN SECRETION AND GENE EXPRESSION IN BETA-CELLS” (Technische Universität Dresden Medizinizche Fakultät Carl …, priority 2004, published 2009).

Consider `Cc1c2oc3c(C)ccc(C(=O)N[C@@H]4C(=O)N[C@H](C(C)C)C(=O)N5CCC[C@H]5C(=O)N(C)CC(=O)N(C)[C@@H](C(C)C)C(=O)O[C@@H]4C)c3nc-2c(C(=O)N[C@@H]2C(=O)N[C@H](C(C)C)C(=O)N3CCC[C@H]3C(=O)N(C)CC(=O)N(C)[C@@H](C(C)C)C(=O)O[C@@H]2C)c(N)c1=O` [actinomycin D, reference compound] (I: T[dV]P[Sar][NMeV] / II: T[dV]P[Sar][NMeV]; ester I:1-I:C, II:1-II:C; linker I:N-II:N via Actinocin(9to1)), for which the “rapid induction of pro-ICA512” value in the experiment with pro-ICA512 is recorded as “did not prevent the rapid induction of pro-ICA512”. In the experiment on INS-1 cells, the “effect on the increase of 3H-uridine incorporation” value is recorded as “abolished”.

B1: ICA512-CCF-GFP (other, not shown: large carriers)
chain: SQFSDAAQASPSSHSSTPSWCEEPAQANMDISTGHMILAYMEDHLRNRDRLAKEWQALCAYQAEPNTCATAQGEGNIKKNRHPDFLPYDHARIKLKVESSPSRSDYINASPIIEHDPRMPAYIATQGPLSHTIADFWQMVWESGCTVIVMLTPLVEDGVKQCDRYWPDEGASLYHVYEVNLVSEHIWCEDFLVRSFYLKNVQTQETRTLTQFHFLSWPAEGTPASTRPLLDFRRKVNKCYRGRSCPIIVHCSDGAGRTGTYILIDMVLNRMAKGVKEIDIAATLEHVRDQRPGLVRSKDQFEFALTAVAEEVNAILKALPQ
As to B1, the “luciferase activity of the STAT reporter 8GLE-CAS-FL in hGH-stimulated INS-1 cells, relative to GFP cells” value with STAT5b [1] is more than 500%.

B2: ICA512-CFP (other)
chain: SQFSDAAQASPSSHSSTPSWCEEPAQANMDISTGHMILAYMEDHLRNRDRLAKEWQALCAYQAEPNTCATAQGEGNIKKNRHPDFLPYDHARIKLKVESSPSRSDYINASPIIEHDPRMPAYIATQGPLSHTIADFWQMVWESGCTVIVMLTPLVEDGVKQCDRYWPDEGASLYHVYEVNLVSEHIWCEDFLVRSFYLKNVQTQETRTLTQFHFLSWPAEGTPASTRPLLDFRRKVNKCYRGRSCPIIVHCSDGAGRTGTYILIDMVLNRMAKGVKEIDIAATLEHVRDQRPGLVRSKDQFEFALTAVAEEVNAILKALPQ
notes: The FRET was read in the nucleus, so the partner of PIASy-YFP there is the cleaved cytoplasmic fragment ICA512-CCF-CFP; Its N-terminal limit in cells is not determined; also called ICA512-CCF-CFP (its cleaved cytoplasmic fragment in the nucleus); not shown: CFP encoded by pECFP-N1 (Clontech), fused at the C-terminus
B2: the “fold increase of the recovery of ICA512-CFP signal after photobleaching of PIASy-YFP (FRET), stimulated against resting cells” value with PIASy-YFP was approximately 5 fold.

B3: ICA512-CCF(K/A^754)-GFP (other)
chain: SQFSDAAQASPSSHSSTPSWCEEPAQANMDISTGHMILAYMEDHLRNRDRLAKEWQALCAYQAEPNTCATAQGEGNIKKNRHPDFLPYDHARIKLAVESSPSRSDYINASPIIEHDPRMPAYIATQGPLSHTIADFWQMVWESGCTVIVMLTPLVEDGVKQCDRYWPDEGASLYHVYEVNLVSEHIWCEDFLVRSFYLKNVQTQETRTLTQFHFLSWPAEGTPASTRPLLDFRRKVNKCYRGRSCPIIVHCSDGAGRTGTYILIDMVLNRMAKGVKEIDIAATLEHVRDQRPGLVRSKDQFEFALTAVAEEVNAILKALPQ
notes: Expressed in INS-1 cells; not shown: GFP encoded by pEGFP-N1 (Clontech), fused at the C-terminus
Consider B3, for which the binding result in the experiment with STAT5b [2] is reported as “binds”.

B4: GST-ICA512 (800-979) (other)
chain: ESGCTVIVMLTPLVEDGVKQCDRYWPDEGASLYHVYEVNLVSEHIWCEDFLVRSFYLKNVQTQETRTLTQFHFLSWPAEGTPASTRPLLDFRRKVNKCYRGRSCPIIVHCSDGAGRTGTYILIDMVLNRMAKGVKEIDIAATLEHVRDQRPGLVRSKDQFEFALTAVAEEVNAILKALPQ
notes: Bacterially expressed; not shown: glutathione S-transferase (GST) fusion partner
Regarding B4, the binding result in experiment [3] is given as “no binding”.
